# From article PMC11661148
# Target: Gal4-SNAP-VP16 labeled with SNAP-Surface-649 (S. cerevisiae | herpes simplex virus) (UniProt P04386)
# Assay: colocalization single-molecule spectroscopy
substance,measurement,value
Mediator complex with Med7-HA-SNAP labeled with SNAP-Surface-549 (from UniProt Q08278 1-222),duration of individual binding events (at 10 nM Gal4-VP16^649),1 s
